In US20180230200A1 (CITY OF HOPE, published 2018):

Columns and labels:
KLH-K15M = biological target: T1, KLH-K15M (human cytomegalovirus); assay: ELISA with KLH-coupled peptides (FIG. 11A)
T1 peptide: KHKRLDVCRAKMGYM

KLH-K16CS = biological target: T2, KLH-K16CS; assay: ELISA with KLH-coupled peptides (FIG. 11A)
T2 peptide: KHKRLDVSRAKMGYMC

KLH-K14CS = biological target: T3, KLH-K14CS; assay: ELISA with KLH-coupled peptides (FIG. 11A)
T3 peptide: KRLDVSRAKMGYMC

[1] = biological target: gH/gL/UL128/UL130/UL131A pentamer complex (PC) of HCMV strain TB40/E virus (human cytomegalovirus strain TB40/E); assay: cell-based or functional assay
[2] = biological target: gH/gL/UL128/UL130/UL131A pentamer complex (PC) of HCMV strain TR virus (human cytomegalovirus strain TR); assay: cell-based or functional assay
[3] = biological target: T4, gH/gL/UL128/UL130/UL131A pentamer complex expressed from MVA-PC in BHK-21 cells (human cytomegalovirus, UniProt P12824 24-743; P16832 31-278; P16837 28-171; P16772 1-214; F5HET4 19-129); assay: FC competition, MVA-PC BHK-21; unlabelled row Ab; competitor: biotinylated 1B2
T4 construct: whole, on cells

[4] = biological target: T4, gH/gL/UL128/UL130/UL131A pentamer …; assay: FC competition, MVA-PC BHK-21; unlabelled row Ab; competitor: biotinylated 54E11
[5] = biological target: T5, UL131A expressed from MVA in BHK-21 cells (human cytomegalovirus, UniProt F5HET4 19-129); assay: intracellular FC, MVA-infected BHK-21
T5 construct: whole, on cells
Protocol: (§1) NAb subunit specificity was evaluated by staining BHK-21 cells infected with different MVA recombinants. One or more vectors were used to co-infect BHK-21 at an MOI of 5. […] Four hours post infection cells were fixed and permeabilized using Cytofix/Cytoperm solution (BD Biosciences). NAbs (1 mg/ml) were diluted 1:500 in perm/wash buffer (BD) and added to the cells for 1 hour at 4° C. […] Cells were washed again and resuspended in PBS/0.1% BSA. Fifteen thousand events were collected using the Gallios Flow Cytometer (Beckman Coulter, Miami, Fla., USA) and analyzed with FlowJo Software (Tree Star, Ashland, Oreg., USA). Uninfected cells and cells infected with MVA-Venus were used as controls. GFP expression was analyzed for confirming MVA infection since all the constructs contain a GFP expression cassette (36, 62).
(§2) In order to determine the antigen specificity of the vaccine-derived NAbs, intracellular flow cytometry (FC) staining of permeabilized BHK-21 cells infected with MVA expressing single subunits or combinations of two or more subunits of the PC was evaluated.

[6] = biological target: T6, gH/gL/UL130 co-expressed from MVA in BHK-21 cells (human cytomegalovirus, UniProt P12824 24-743; P16832 31-278; P16772 1-214); assay: intracellular FC, MVA-infected BHK-21
T6 construct: whole, on cells
Protocol: as §1, §2

[7] = biological target: T7, gH/gL/UL130/UL131A co-expressed from MVA in BHK-21 cells (human cytomegalovirus, UniProt P12824 24-743; P16832 31-278; P16772 1-214; F5HET4 19-129); assay: intracellular FC, MVA-infected BHK-21
T7 construct: whole, on cells
Protocol: as §1, §2

[8] = biological target: T8, UL130 expressed from MVA in BHK-21 cells (human cytomegalovirus, UniProt P16772 1-214); assay: intracellular FC, MVA-infected BHK-21
T8 construct: whole, on cells
Protocol: as §1, §2

[9] = biological target: T9, gH expressed from MVA in BHK-21 cells (human cytomegalovirus, UniProt P12824 24-743); assay: intracellular FC, MVA-infected BHK-21
T9 construct: whole, on cells
Protocol: as §1, §2

[10] = biological target: T10, UL130/UL131A co-expressed from MVA in BHK-21 cells (human cytomegalovirus, UniProt P16772 1-214; F5HET4 19-129); assay: intracellular FC, MVA-infected BHK-21
T10 construct: whole, on cells
Protocol: as §1, §2

[11] = biological target: T11, gH/gL/UL131A co-expressed from MVA in BHK-21 cells (human cytomegalovirus, UniProt P12824 24-743; P16832 31-278; F5HET4 19-129); assay: intracellular FC, MVA-infected BHK-21
T11 construct: whole, on cells
Protocol: as §1, §2

[12] = biological target: T12, gH/gL co-expressed from MVA in BHK-21 cells (human cytomegalovirus, UniProt P12824 24-743; P16832 31-278); assay: intracellular FC, MVA-infected BHK-21
T12 construct: whole, on cells
Protocol: as §1, §2

[13] = biological target: T4, gH/gL/UL128/UL130/UL131A pentamer …; assay: FC, biotinylated NAb titrated on MVA-PC-infected BHK-21 (cell surface PC)
[14] = biological target: T4, gH/gL/UL128/UL130/UL131A pentamer …; assay: FC competition, MVA-PC BHK-21; unlabelled row Ab; competitor: biotinylated 18F10
[15] = biological target: T4, gH/gL/UL128/UL130/UL131A pentamer …; assay: FC competition, MVA-PC BHK-21; unlabelled row Ab; competitor: biotinylated 12E2
[16] = biological target: T4, gH/gL/UL128/UL130/UL131A pentamer …; assay: FC competition, MVA-PC BHK-21; unlabelled row Ab; competitor: biotinylated 13B5
[17] = biological target: T4, gH/gL/UL128/UL130/UL131A pentamer …; assay: FC competition, MVA-PC BHK-21; unlabelled row Ab; competitor: biotinylated 21F6

B1: 13B5 (antibody, V domains shown)
VH: QVTLKESGPGILKPSQTLSLTCSFSGFSLTTSGLGVGWIRQPSGKGLEWLAHIWWDDDKYFNPSLRNQLTISKDTSRNQVFLEITSVTTADTATYYCVRSLYDYDEGYYFDSWGQGTTLTVSS
VL: EIVMIQSPATLSVNPGDRVSLSCRASQSISDYLHWYQQKSHESPRLLIKYASQSISGIPSRFSGSGSGSDFTLSINSVEPEDVGVYYCQNGHTFPPTFGGGTKLEIK
notes: also called NAb 13B5; 1365
KLH-K15M
  binding result: binds
KLH-K16CS
  binding result: binds
KLH-K14CS
  binding result: binds
[1]
  IC50, inhibition of TB40/E cell-to-cell spread in ARPE-19: 22 µg/mL
  IC50, neutralization of TB40/E infection of ARPE-19: 0.015 µg/mL
  IC50, neutralization of TB40/E infection of CTB: 0.0998 µg/mL
  IC50, neutralization of TB40/E infection of HUVEC: 0.012 µg/mL
  IC50, neutralization of TB40/E infection of MRC-5: > 25 µg/mL
[2]
  IC50, inhibition of TR cell-to-cell spread in ARPE-19: 21 µg/mL
  IC50, neutralization of TR infection of ARPE-19: 0.0199 µg/mL
  IC50, neutralization of TR infection of HUVEC: 0.0077 µg/mL
  IC50, neutralization of TR infection of MRC-5: > 25 µg/mL
[3]
  Binding Inhibition (%): 0%
[4]
  Binding Inhibition (%): 0%
[5]
  binding result: no binding
[6]
  binding result: no binding
[7]
  binding result: no binding
[8]
  binding result: no binding
[9]
  binding result: no binding
[10]
  binding result: no binding
[11]
  binding result: no binding
[12]
  binding result: no binding
[13]
  EC50: 0.68 nM
[14]
  Binding Inhibition (%): 0%
[15]
  Binding Inhibition (%): 0%
[16]
  Binding Inhibition (%): 100%
[17]
  Binding Inhibition (%): 0%
